This passage reports Transduction efficiency results from patent publication US20230287120A1 (ALLOGENE THERAPEUTICS, published 2023).

To fix the notation:
T1: Flag tagged recombinant DLL3 (Adipogen) (Homo sapiens (Human), UniProt Q9NYJ7 27-492)
T1 construct: Bought reagent; also called Flag-DLL3
T1 sequence: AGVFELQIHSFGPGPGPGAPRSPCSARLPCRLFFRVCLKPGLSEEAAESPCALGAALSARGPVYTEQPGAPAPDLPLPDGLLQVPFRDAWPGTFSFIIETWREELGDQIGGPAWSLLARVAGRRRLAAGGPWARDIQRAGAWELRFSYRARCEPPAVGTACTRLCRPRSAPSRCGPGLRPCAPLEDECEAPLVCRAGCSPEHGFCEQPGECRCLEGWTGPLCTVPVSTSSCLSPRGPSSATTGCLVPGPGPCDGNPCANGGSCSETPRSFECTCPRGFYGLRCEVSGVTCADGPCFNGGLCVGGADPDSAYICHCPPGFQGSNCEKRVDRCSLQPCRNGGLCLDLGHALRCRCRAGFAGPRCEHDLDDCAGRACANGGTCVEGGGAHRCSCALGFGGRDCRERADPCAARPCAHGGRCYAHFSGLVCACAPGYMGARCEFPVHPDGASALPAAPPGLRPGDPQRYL

B1: 3F9-L (other)
CAR: QVQLQQSGPGLVKPSQTLSLACAISGDSVSSNSAIWNWIRQSPSRGLEWLGGTYYRSMWYNDYAVSVKSRITINPDTSKNQLSLQLNSVTPEDTAVYYCSRGGIVGVPDAFDIWGQGTMVTVSSGGGGSGGGGSGGGGSGGGGSQSVLTQPPSASGTPGQRVTISCSGSSSNIGSNTANWYQQLPGTAPRLLIYRNNQRPSGVPDRFSGSKSGTSASLAISGLQSEDEADYYCAAWDDSLNGYVFGTGTKVTVLTTTPAPRPPTPAPTIASQPLSLRPEACRPAAGGAVHTRGLDFACDIYIWAPLAGTCGVLLLSLVITKRGRKKLLYIFKQPFMRPVQTTQEEDGCSCRFPEEEEGGCELRVKFSRSADAPAYQQGQNQLYNELNLGRREEYDVLDKRRGRDPEMGGKPRRKNPQEGLYNELQKDKMAEAYSEIGMKGERRRGKGHDGLYQGLSTATKDTYDALHMQALPPR
notes: also called anti-DLL3 CAR with 3F9-L scFv, on primary T cells
B2: 6F8 (other)
CAR: QVQLVQSGAEVKKPGSSVKVSCKASGGTFTNYCISWVRQAPGQGLEWMGGIIPIFGTTNYAQTFQGRVTITADKSTSTAYMELSSLRSEDTAVYYCARDNGDRYYYDMDVWGQGTTVTVSSGGGGSGGGGSGGGGSGGGGSQSVLTQPPSVSAAPGQKVTISCSGSSSNIGNNYVSWYQQLPGTAPKLLIYDNNKRPSGIPDRFSGSKSGTSATLGITGLQTGDEADYYCGTWDSSLSAVVFGGGTKLTVLTTTPAPRPPTPAPTIASQPLSLRPEACRPAAGGAVHTRGLDFACDIYIWAPLAGTCGVLLLSLVITKRGRKKLLYIFKQPFMRPVQTTQEEDGCSCRFPEEEEGGCELRVKFSRSADAPAYQQGQNQLYNELNLGRREEYDVLDKRRGRDPEMGGKPRRKNPQEGLYNELQKDKMAEAYSEIGMKGERRRGKGHDGLYQGLSTATKDTYDALHMQALPPR
notes: also called anti-DLL3 CAR with 6F8 scFv, on primary T cells
B3: 2404.8E11 (other)
CAR: QIQLQQSGPGLVKPSQTLSLTCAISGDSVSSNSAVWNWIRQSPSRGLEWLGRTYYRSKWYNDYAVSVKSRITIKPDTAKNQFSLQLNSVTPEDTAVYYFTRGGIVGAPDAFDIWGQGTMVTVSSGGGGSGGGGSGGGGSGGGGSQSVLTQPPSASGTPGQRVTISCSGSSSNIGSDPINWYQQVPGTAPKLLIYSNNQRPSGVPDRFSGSKSGTSASLAISGLQSEDEADYYCAAWDDSLNGYVFGTGTKVTVLTTTPAPRPPTPAPTIASQPLSLRPEACRPAAGGAVHTRGLDFACDIYIWAPLAGTCGVLLLSLVITKRGRKKLLYIFKQPFMRPVQTTQEEDGCSCRFPEEEEGGCELRVKFSRSADAPAYQQGQNQLYNELNLGRREEYDVLDKRRGRDPEMGGKPRRKNPQEGLYNELQKDKMAEAYSEIGMKGERRRGKGHDGLYQGLSTATKDTYDALHMQALPPR
notes: also called anti-DLL3 CAR with 2404.8E11 scFv, on primary T cells
B4: 4E6 (other)
CAR: QVQLQESGPGLVKPSETLSLTCTVSSDSISSYYWSWIRQPPGKGLEWISYIYYSGISNYNPSLKSRVSISVDTSKNQFSLRLSSVTAADTAVYYCARISVAGFFFDNWGQGTLVTVSSGGGGSGGGGSGGGGSGGGGSEIMLTQSPDTLSLSPGERATLSCRASQSVSSSYLAWYQQKPGQAPRLLIYGASSRAAGVPDRFSGSGSGTDFTLTISRLAPEDFVVYYCQQYGISPLTFGGGTKVEIKTTTPAPRPPTPAPTIASQPLSLRPEACRPAAGGAVHTRGLDFACDIYIWAPLAGTCGVLLLSLVITKRGRKKLLYIFKQPFMRPVQTTQEEDGCSCRFPEEEEGGCELRVKFSRSADAPAYQQGQNQLYNELNLGRREEYDVLDKRRGRDPEMGGKPRRKNPQEGLYNELQKDKMAEAYSEIGMKGERRRGKGHDGLYQGLSTATKDTYDALHMQALPPR
notes: also called anti-DLL3 CAR with 4E6 scFv, on primary T cells
B5: 3C3 (other)
CAR: QVQLVQSGAEVKRPGASVKVSCKASGYTFTSYYIHWVRQAPGQGLEWMGVIVPSGGSISYAQKFQGRVTMTRDTSTNIVYMELSSLRSEDTAVYYCARDRYYGDYYYGLDVWGQGTTVTVSSGGGGSGGGGSGGGGSGGGGSDIQMTQSPSSLSASVGDRVTITCRASQGINNFLAWFQQKPGKAPKSLIYAASSLQSGVPSKFSGSGSGTDFTLTIRSLQPEDFATYYCQHYNSYPITFGQGTRLEIKTTTPAPRPPTPAPTIASQPLSLRPEACRPAAGGAVHTRGLDFACDIYIWAPLAGTCGVLLLSLVITKRGRKKLLYIFKQPFMRPVQTTQEEDGCSCRFPEEEEGGCELRVKFSRSADAPAYQQGQNQLYNELNLGRREEYDVLDKRRGRDPEMGGKPRRKNPQEGLYNELQKDKMAEAYSEIGMKGERRRGKGHDGLYQGLSTATKDTYDALHMQALPPR
notes: also called anti-DLL3 CAR with 3C3 scFv, on primary T cells
B6: 10E12 (other)
CAR: QVQLQESGPGLVKPSETLSLTCTVSGVSISSYYWSWIRQPPGKGLEWIAYIYYSGNTNYSPSLKSRVTISVDTSKDQLSLKLSSVTAADTAVYYCTRGGSGTIDVFDIWGQGTMVAVSSGGGGSGGGGSGGGGSGGGGSQSVLTQPPSVSAAPGQKVTISCSGSSSNIGNNYVSWYQQLPGTAPKLLIYDNNKRPSGIPDRFSGSKSGTSATLGITGLQTGDEADYYCETWDSSLSAVVFGGGTKLTVLTTTPAPRPPTPAPTIASQPLSLRPEACRPAAGGAVHTRGLDFACDIYIWAPLAGTCGVLLLSLVITKRGRKKLLYIFKQPFMRPVQTTQEEDGCSCRFPEEEEGGCELRVKFSRSADAPAYQQGQNQLYNELNLGRREEYDVLDKRRGRDPEMGGKPRRKNPQEGLYNELQKDKMAEAYSEIGMKGERRRGKGHDGLYQGLSTATKDTYDALHMQALPPR
notes: also called anti-DLL3 CAR with 10E12 scFv, on primary T cells
B7: 11F4 (other)
CAR: QVHLQESGPGLVKPSETLSLTCTVSGGSISHYYWTWIRQPPGKGLEWIGYIYYSGITNFSPSLKSRVSISVDSSKNQFSLNLNSVTAADTAVYYCAGISLAGFYFDYWVQGTLVTVSSGGGGSGGGGSGGGGSGGGGSEIVLTQSPGTLSLSPGERATLSCRASQSVSRSYLAWYQQKPGQAPRLLIYGASSRATGVPDRFSGSGSGTDFTLTISRLEPEDFAVFYCQQYSISPLTFGGGTKVEIKTTTPAPRPPTPAPTIASQPLSLRPEACRPAAGGAVHTRGLDFACDIYIWAPLAGTCGVLLLSLVITKRGRKKLLYIFKQPFMRPVQTTQEEDGCSCRFPEEEEGGCELRVKFSRSADAPAYQQGQNQLYNELNLGRREEYDVLDKRRGRDPEMGGKPRRKNPQEGLYNELQKDKMAEAYSEIGMKGERRRGKGHDGLYQGLSTATKDTYDALHMQALPPR
notes: also called anti-DLL3 CAR with 11F4 scFv, on primary T cells
B8: 3E10 (other)
CAR: QVQLQESGPGLVKPSETLSLTCNVSDGSISSYYWTWIRQPPGKGLDWIGYIFYSGTTNYNPSLKSRVTISLDTSKNQFSLKLTSMTAADTAVYYCARISEKSFYFDYWGQGTLVTVSSGGGGSGGGGSGGGGSGGGGSQSVLTQPPSASGTPGQRVTISCSGSSSNIGSNYVYWYQQLPGTAPKLLIYSNNQRPSGVPDRFSGSKSGTSASLAISGLRSEDEADYYCAPWDDSLSGRVFGGGTKLTVLTTTPAPRPPTPAPTIASQPLSLRPEACRPAAGGAVHTRGLDFACDIYIWAPLAGTCGVLLLSLVITKRGRKKLLYIFKQPFMRPVQTTQEEDGCSCRFPEEEEGGCELRVKFSRSADAPAYQQGQNQLYNELNLGRREEYDVLDKRRGRDPEMGGKPRRKNPQEGLYNELQKDKMAEAYSEIGMKGERRRGKGHDGLYQGLSTATKDTYDALHMQALPPR
notes: also called anti-DLL3 CAR with 3E10 scFv, on primary T cells

The target of one test is T1, Flag tagged recombinant DLL3 (Adipogen). Put plainly: flow cytometry, percent of T cells that recognise recombinant DLL3, Donor 503. In general terms: Flow cytometry measures light scatter and fluorescence of single cells or particles in a stream.
Procedure: (§1) To determine the percentage of T cells that were successfully transduced with DLL3 CAR, T cells were first incubated with 1 ug/ml Flag tagged recombinant DLL3 (Adipogen) in PBS+1% BSA for 20 minutes at 4 C.
With B1, the Transduction efficiency was found to be 19.5%.
Turning to B2, the Transduction efficiency is 59.4%.
The same measure, in the same setting: with B3 the figure was 58.9%; with B4, 37.8%.

For the next test the target is unchanged. Put plainly: flow cytometry, percent of T cells that recognise recombinant DLL3, Donor 772.
Procedure: as §1
For B5, the Transduction efficiency was 0.14%.
On to B6, for which the Transduction efficiency came to 0.98%.
Same read-out and setting: then B1, with 13.8%.
Same read-out and setting: then B7, with 0.43%; and B2, with 26.7%.
Still for that read-out and setting: then B8, with 0.43%.
Take B4: the Transduction efficiency came out at 24.8%.
